Where two headings read alike, the source gives them in different places.
Key:
Type in all cases: cell-based
[1] = molecular target: T1, mouse GIP receptor (mGIPr) (Mus musculus, UniProt Q0P543); test: BSA-cAMP assay, cells expressing mouse GIP receptor; details: BSA-cAMP assay
T1 construct: expressed in transfected cells; host or cells: HEK293s or CHO cells
T1 sequence (Q0P543 19-460): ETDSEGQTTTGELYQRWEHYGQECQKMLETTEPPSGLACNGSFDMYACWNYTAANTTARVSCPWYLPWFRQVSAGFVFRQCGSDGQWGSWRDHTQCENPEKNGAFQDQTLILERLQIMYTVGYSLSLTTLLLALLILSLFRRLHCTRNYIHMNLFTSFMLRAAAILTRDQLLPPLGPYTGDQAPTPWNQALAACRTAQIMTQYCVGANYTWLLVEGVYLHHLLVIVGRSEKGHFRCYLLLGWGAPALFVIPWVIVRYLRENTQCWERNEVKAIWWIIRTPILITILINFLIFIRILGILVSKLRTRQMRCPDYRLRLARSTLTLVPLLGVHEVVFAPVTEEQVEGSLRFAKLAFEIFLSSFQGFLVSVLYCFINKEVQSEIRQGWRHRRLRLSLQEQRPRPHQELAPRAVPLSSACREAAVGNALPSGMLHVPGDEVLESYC
Experimental: (§1) One basic cAMP assays was performed, differing in the medium used for the assay, the “BSA-cAMP assay”:
(§2) BSA-based assay medium: 0.1% bovine serum albumin (BSA) in
(§3) In certain aspects, the assay can also be carried out in medium supplemented with serum albumin that corresponds to the receptor being tested, e.g., human serum albumin for testing cAMP activity at hGIPr or hGLP-1r, rat serum albumin for testing cAMP activity at rGIPr or rGLP-1r, and so on. […] All sample dilutions were made in duplicate.
(§4) A frozen cryo-vial of cells expressing the receptor of interest was thawed rapidly in a water-bath, transferred to pre-warmed assay media and spun at 240×g for 5 minutes. Cells were re-suspended in assay buffer at an optimized concentration (e.g., hGLP-1r and hGIPr cells at 0.5×10^5 cells/ml).
(§5) To this, 5 μL cell suspension was added and the plates incubated at room temperature for 30 minutes.
(§6) cAMP levels were measured using a commercially available cAMP dynamic 2 HTRF kit (Cisbio, Cat #62AM4PEJ), following the two step protocol as per manufacturer's recommendations. In brief; anti-cAMP cryptate (donor fluorophore) and cAMP-d2 (acceptor fluorophore) were made up separately by diluting each 1/20 in conjugate & lysis buffer provided in the kit. 5 μL anti-cAMP cryptate was added to all wells of the assay plate, and 5 μL cAMP-d2 added to all wells except non-specific binding (NSB) wells, to which conjugate and lysis buffer was added. […] Data was transformed to % Delta F as described in manufacturer's guidelines and then transformed to percent activation of maximal native agonist response and analysed by 4-parameter logistic fit to determine EC50 values.
(§7) We used unconstrained 4 parameter logistic fit of data, curve mid-point to determine EC50. This was tested on two occasions, not two batches.
(§8) In order to be able to carry out in vivo studies in rodents, IP088 was tested for potency against the mouse receptors mGIPr and mGLP-1r as well as the rat receptors rGIPr and rGLP-1r, using cells expressing the respective receptors in the cAMP assay described above.

[2] = molecular target: T2, human GLP-1 receptor (hGLP-1r) (Homo sapiens, UniProt P43220); test: BSA-cAMP assay, cells expressing human GLP-1 receptor; details: BSA-cAMP assay
T2 construct: expressed in transfected cells
Experimental: as §1, §2, §3, §4, §5, §6, §7

[3] = molecular target: T3, mouse GLP-1 receptor (mGLP-1r) (Mus musculus, UniProt O35659); test: BSA-cAMP assay, cells expressing mouse GLP-1 receptor; details: BSA-cAMP assay
T3 construct: expressed in transfected cells; host or cells: HEK293s or CHO cells
T3 sequence (O35659 22-463): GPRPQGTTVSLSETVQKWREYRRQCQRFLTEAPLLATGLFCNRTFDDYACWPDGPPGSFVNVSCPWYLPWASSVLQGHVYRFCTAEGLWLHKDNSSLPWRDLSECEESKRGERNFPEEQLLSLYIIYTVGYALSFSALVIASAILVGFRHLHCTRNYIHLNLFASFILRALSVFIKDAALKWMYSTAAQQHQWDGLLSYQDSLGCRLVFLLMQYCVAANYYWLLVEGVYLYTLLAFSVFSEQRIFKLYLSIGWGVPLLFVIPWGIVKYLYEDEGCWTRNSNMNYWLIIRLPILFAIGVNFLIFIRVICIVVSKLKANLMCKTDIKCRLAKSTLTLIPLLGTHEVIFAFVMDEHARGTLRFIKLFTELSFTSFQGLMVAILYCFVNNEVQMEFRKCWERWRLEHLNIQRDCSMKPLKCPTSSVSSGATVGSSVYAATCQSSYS
Experimental: as §1, §2, §3, §4, §5, §6, §7, §8

[4] = molecular target: T4, rat GIP receptor (rGIPr) (Rattus norvegicus, UniProt P43219); test: BSA-cAMP assay, cells expressing rat GIP receptor; details: BSA-cAMP assay
T4 construct: expressed in transfected cells; host or cells: HEK293s or CHO cells
T4 sequence (P43219 19-455): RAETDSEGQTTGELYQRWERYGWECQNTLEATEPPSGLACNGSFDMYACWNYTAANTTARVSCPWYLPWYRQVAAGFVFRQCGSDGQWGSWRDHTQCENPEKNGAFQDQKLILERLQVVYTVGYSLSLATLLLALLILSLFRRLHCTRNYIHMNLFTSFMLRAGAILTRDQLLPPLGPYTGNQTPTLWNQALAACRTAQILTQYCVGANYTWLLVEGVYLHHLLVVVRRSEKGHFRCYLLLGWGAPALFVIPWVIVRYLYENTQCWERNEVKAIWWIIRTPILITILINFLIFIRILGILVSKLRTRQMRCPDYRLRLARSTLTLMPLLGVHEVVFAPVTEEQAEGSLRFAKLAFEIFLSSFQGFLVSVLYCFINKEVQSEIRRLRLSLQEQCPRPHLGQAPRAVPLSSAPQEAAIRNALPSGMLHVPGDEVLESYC
Experimental: as §1, §2, §3, §4, §5, §6, §7, §8

[5] = molecular target: T5, human GIP receptor (hGIPr) (Homo sapiens, UniProt P48546); test: BSA-cAMP assay, cells expressing human GIP receptor; details: BSA-cAMP assay
T5 construct: expressed in transfected cells
T5 sequence (P48546 22-466): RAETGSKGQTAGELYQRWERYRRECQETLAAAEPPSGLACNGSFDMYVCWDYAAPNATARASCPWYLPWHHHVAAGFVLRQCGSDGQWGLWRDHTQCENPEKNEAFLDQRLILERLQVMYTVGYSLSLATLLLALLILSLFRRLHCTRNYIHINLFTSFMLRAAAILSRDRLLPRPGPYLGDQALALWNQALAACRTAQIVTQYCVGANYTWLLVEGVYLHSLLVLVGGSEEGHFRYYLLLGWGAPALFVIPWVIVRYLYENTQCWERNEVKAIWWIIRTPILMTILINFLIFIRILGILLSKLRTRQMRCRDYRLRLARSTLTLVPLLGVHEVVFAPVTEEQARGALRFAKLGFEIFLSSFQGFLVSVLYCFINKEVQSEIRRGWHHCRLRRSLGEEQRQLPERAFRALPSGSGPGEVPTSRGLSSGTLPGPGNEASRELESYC
Experimental: For human GIPr, two different lines were used, shown as “hGIPr” and “hGIPr (C3)” in Table 11.
as §1, §2, §3, §4, §5, §6, §7

[6] = molecular target: T6, human glucagon receptor (GCGr) (Homo sapiens, UniProt P47871); test: BSA-cAMP assay, cells expressing human glucagon receptor
T6 construct: expressed in transfected cells; host or cells: HEK293s or CHO cells
Experimental: as §1, §2, §3, §4, §5, §6, §7

[7] = molecular target: T7, rat GLP-1 receptor (rGLP-1r) (Rattus norvegicus, UniProt P32301); test: BSA-cAMP assay, cells expressing rat GLP-1 receptor; details: BSA-cAMP assay
T7 construct: expressed in transfected cells; host or cells: HEK293s or CHO cells
T7 sequence (P32301 22-463): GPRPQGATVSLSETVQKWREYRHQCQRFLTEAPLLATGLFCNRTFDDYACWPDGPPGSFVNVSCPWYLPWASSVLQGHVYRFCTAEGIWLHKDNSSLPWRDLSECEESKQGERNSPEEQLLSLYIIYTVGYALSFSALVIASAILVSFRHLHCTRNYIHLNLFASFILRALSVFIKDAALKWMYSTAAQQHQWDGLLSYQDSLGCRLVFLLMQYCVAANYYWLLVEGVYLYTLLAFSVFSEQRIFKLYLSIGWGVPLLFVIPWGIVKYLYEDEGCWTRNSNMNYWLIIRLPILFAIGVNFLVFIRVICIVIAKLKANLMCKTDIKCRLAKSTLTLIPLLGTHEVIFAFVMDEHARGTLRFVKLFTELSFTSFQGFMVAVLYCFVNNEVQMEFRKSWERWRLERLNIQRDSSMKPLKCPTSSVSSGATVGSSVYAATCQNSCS
Experimental: as §1, §2, §3, §4, §5, §6, §7, §8

[8] = Batch 1, read-out: mGIPr cAMP activity EC50
[9] = Batch 1, read-out: hGLP1r cAMP activity EC50
[10] = Batch 1, read-out: mGLP1r cAMP activity EC50
[11] = Batch 1, read-out: rGIPr cAMP activity EC50
[12] = Batch 1, read-out: hGIPr cAMP activity EC50
[13] = Batch 1, read-out: hGCGr cAMP activity EC50
[14] = Batch 1, read-out: rGLP1r cAMP activity EC50

T2 sequence (P43220 24-463): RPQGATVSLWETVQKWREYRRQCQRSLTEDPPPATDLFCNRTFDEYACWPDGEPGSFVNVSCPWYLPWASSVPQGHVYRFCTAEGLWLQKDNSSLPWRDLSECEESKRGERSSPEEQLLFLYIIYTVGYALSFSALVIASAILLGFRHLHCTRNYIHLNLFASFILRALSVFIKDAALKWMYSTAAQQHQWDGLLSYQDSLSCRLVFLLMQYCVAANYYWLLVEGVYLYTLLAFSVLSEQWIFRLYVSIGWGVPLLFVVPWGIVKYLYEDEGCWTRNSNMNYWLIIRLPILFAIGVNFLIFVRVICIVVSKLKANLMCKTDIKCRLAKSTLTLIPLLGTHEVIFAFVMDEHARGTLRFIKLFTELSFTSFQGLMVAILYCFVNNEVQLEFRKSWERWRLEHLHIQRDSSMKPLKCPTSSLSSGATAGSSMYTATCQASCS
T6 sequence (P47871 26-477): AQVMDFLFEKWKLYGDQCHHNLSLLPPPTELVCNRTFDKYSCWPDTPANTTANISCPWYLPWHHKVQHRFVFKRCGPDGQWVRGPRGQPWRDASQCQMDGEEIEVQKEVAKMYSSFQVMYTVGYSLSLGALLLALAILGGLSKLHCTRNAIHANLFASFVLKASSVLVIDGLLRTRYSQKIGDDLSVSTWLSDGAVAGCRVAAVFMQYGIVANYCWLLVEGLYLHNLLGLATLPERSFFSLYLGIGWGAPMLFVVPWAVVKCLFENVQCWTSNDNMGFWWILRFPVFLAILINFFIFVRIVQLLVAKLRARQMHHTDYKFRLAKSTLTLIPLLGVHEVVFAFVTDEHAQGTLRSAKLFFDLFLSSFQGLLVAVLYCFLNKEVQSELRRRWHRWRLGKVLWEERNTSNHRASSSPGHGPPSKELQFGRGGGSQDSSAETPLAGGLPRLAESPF

| Substance | EC50 [1, 8] | EC50 [2, 9] | EC50 [3, 10] | EC50 [4, 11] | EC50 [5, 12] | EC50 [6, 13] | EC50 [7, 14] | EC50 ([1]; read-out: cAMP activity mGIPr (EC50)) | EC50 ([2]; batch 1 unless a batch is given, read-out: cAMP activity hGLP1r (EC50)) | EC50 ([3]; read-out: cAMP activity mGLP1r (EC50)) | EC50 ([4]; read-out: cAMP activity rGIPr (EC50)) | EC50 ([5]; batch 1 unless a batch is given, read-out: cAMP activity hGIPr (EC50)) | EC50 ([6]; batch 1 unless a batch is given, read-out: cAMP activity hGCGr (EC50)) | EC50 ([7]; read-out: cAMP activity rGLP1r (EC50)) |
| --- | --- | --- | --- | --- | --- | --- | --- | --- | --- | --- | --- | --- | --- | --- |
| IP314: Fc fusion, IgG1-TM(ΔK), SEQ ID NO:431; agonist peptide YSEGTFISDYSKLLAAAAVRDFVNWLLAGG (YSEGTFISDYSKLLAAAAVRDFVNWLLAGGGGGGGSGGGGSGGGGSGGGGSATHTCPPC) | 15 nM | > 906 nM | > 906 nM | 0.88 nM | 0.23 nM | 740 nM | 450 nM |  |  |  |  |  |  |  |
| IP343 (YSEGTFTSDYAAAAERQAIDAFAAWLAAAAGGGGGSGGGGSGGGGSGGGGSA) | 880 nM | 960 nM | > 2070 nM | 110 nM | 72 nM | > 2070 nM | 360 nM |  |  |  |  |  |  |  |
| IP359: Fc fusion, IgG1-TM, SEQ ID NO:366; agonist peptide YSEGTFTSDYSKLLEEEAVRLFIEHLLAGG (YSEGTFTSDYSKLLEEEAVRLFIEHLLAGGGGGGSGGGGSGGGGSGGGGSATHTCPPC) | 8.3 nM | 0.061 nM | 0.2 nM | 0.039 nM | 0.011 nM | 43 nM | 0.04 nM |  |  |  |  |  |  |  |
| IP275: Fc fusion, IgG1-TM, SEQ ID NO:332; agonist peptide YSEGTFTSDYSKLLEKEAQRLFIEWLLKGP (YSEGTFTSDYSKLLEKEAQRLFIEWLLKGPGGGGGSGGGGSGGGGSGGGGSATHTCPPC) |  |  |  |  |  |  |  | 0.26 nM | 0.92 nM | 1.7 nM | 0.014 nM | 0.0087 nM | 230 nM | 0.062 nM |

Continued by falling EC50 [1, 8], values first:

| EC50 [1, 8] | EC50 [2, 9] | EC50 [3, 10] | EC50 [4, 11] | EC50 [5, 12] | EC50 [6, 13] | EC50 [7, 14] | EC50 ([1]; read-out: cAMP activity mGIPr (EC50)) | EC50 ([2]; batch 1 unless a batch is given, read-out: cAMP activity hGLP1r (EC50)) | EC50 ([3]; read-out: cAMP activity mGLP1r (EC50)) | EC50 ([4]; read-out: cAMP activity rGIPr (EC50)) | EC50 ([5]; batch 1 unless a batch is given, read-out: cAMP activity hGIPr (EC50)) | EC50 ([6]; batch 1 unless a batch is given, read-out: cAMP activity hGCGr (EC50)) | EC50 ([7]; read-out: cAMP activity rGLP1r (EC50)) | Substance |
| --- | --- | --- | --- | --- | --- | --- | --- | --- | --- | --- | --- | --- | --- | --- |
| 3.3 nM | 0.12 nM | 3.8 nM | 0.063 nM | 0.012 nM | 380 nM | 0.016 nM |  |  |  |  |  |  |  | IP395 (YSEGTFTSDYSKLLERQAIDEFIAHLLKGGGGGGGSGGGGSGGGGSGGGGSACPPC) |
| 0.17 nM | 1300 nM | > 1520 nM | 0.09 nM | 0.025 nM | ≥ 1500 nM | 700 nM |  |  |  |  |  |  |  | IP308 (YSEGTFISDYSIALAAAAAKDFVNWLLAGGGGGGGSGGGGSGGGGSGGGGSATHTCPPC) |
